In patent US20100330076A1:

Legend:
FcγRIa (human) = FcγRIa (human) (UniProt P12314); test: BIACore SPR
FcγRI (human) = FcγRI (human) (UniProt P12314); test: BIACore SPR
Sequence of FcγRI (human) (P12314 16-292): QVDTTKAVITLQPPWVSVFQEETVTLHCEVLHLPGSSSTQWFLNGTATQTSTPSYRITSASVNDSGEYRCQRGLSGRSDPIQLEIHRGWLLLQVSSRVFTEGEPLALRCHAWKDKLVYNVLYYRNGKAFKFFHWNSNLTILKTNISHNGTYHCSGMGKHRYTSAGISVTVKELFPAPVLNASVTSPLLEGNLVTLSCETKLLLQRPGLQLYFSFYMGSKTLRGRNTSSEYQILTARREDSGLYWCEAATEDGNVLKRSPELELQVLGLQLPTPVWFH

Sequence of FcγRIa (human) (P12314 16-292): as above

| Kd (FcγRIa (human)) [nM] | Kd (FcγRI (human)) [nM] | Substance |
| --- | --- | --- |
| 382 | – | Aglycosylated wild type trastuzumab |
| – | 382 | Aglycosylated wild type Trastuzumab |
